Key:
[1] = molecular target: T1, human Natriuretic Peptide Receptor 1 (hNPR1) (human, UniProt P16066 33-473, limits assumed); experiment: ELISA, 1 µM IgG; set-up: unit not given here
T1 construct: pannings used NPR1-hFc; also called NPR1-hFc
T1 sequence: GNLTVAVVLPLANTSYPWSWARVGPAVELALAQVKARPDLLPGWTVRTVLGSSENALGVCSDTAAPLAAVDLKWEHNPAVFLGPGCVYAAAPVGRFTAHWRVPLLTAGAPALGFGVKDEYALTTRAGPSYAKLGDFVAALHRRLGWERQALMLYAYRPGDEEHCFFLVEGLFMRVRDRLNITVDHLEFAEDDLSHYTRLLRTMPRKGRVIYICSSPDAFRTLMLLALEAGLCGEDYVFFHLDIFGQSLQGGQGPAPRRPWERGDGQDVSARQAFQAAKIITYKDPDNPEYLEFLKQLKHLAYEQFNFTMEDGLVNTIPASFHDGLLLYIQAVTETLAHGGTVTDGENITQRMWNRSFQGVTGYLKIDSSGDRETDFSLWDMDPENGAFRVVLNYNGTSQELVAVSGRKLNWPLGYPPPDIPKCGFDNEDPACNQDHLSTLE

[2] = molecular target: T2, hNPR1-ANP complex (human, UniProt P01160 124-151, limits assumed); experiment: ELISA, 1 µM IgG; set-up: unit not given here
T2 construct: hNPR1 antigen in the presence of ANP; also called hNPR1 + 100 nM ANP
T2 sequence: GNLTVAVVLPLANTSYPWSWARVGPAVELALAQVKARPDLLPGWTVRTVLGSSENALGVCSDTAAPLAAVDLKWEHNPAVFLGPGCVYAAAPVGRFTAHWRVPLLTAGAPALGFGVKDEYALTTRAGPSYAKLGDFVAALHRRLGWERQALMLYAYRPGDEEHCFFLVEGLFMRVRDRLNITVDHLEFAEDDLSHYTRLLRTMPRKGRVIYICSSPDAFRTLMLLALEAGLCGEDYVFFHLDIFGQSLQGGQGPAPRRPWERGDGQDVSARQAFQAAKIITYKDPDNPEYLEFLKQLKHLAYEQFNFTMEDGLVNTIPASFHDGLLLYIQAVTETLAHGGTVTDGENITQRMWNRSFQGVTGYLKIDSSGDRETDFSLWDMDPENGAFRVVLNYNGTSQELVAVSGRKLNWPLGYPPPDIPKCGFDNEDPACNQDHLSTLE
T2 sequence (peptide): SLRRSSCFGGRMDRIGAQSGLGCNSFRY

[3] = molecular target: T3, rat NPR1 (rNPR1) (rat, UniProt P18910 29-469, limits assumed); experiment: ELISA, 1 µM IgG; set-up: unit not given here
T3 construct: Soluble antigen
T3 sequence: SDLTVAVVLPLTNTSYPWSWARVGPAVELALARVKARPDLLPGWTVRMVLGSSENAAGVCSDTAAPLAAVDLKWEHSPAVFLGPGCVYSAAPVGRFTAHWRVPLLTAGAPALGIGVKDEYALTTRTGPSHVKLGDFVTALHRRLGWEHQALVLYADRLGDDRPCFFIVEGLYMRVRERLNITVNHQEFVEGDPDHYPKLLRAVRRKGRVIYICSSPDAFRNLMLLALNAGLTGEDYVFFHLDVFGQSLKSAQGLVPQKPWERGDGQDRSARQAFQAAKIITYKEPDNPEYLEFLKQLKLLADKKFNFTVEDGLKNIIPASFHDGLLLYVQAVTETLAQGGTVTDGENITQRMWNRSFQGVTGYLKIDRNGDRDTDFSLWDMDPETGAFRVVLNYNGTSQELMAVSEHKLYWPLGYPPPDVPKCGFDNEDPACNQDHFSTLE

[4] = molecular target: T4, human NPR1 on CHO-K1 cells (human, UniProt P16066 33-1061); experiment: cell-based or functional assay
T4 sequence: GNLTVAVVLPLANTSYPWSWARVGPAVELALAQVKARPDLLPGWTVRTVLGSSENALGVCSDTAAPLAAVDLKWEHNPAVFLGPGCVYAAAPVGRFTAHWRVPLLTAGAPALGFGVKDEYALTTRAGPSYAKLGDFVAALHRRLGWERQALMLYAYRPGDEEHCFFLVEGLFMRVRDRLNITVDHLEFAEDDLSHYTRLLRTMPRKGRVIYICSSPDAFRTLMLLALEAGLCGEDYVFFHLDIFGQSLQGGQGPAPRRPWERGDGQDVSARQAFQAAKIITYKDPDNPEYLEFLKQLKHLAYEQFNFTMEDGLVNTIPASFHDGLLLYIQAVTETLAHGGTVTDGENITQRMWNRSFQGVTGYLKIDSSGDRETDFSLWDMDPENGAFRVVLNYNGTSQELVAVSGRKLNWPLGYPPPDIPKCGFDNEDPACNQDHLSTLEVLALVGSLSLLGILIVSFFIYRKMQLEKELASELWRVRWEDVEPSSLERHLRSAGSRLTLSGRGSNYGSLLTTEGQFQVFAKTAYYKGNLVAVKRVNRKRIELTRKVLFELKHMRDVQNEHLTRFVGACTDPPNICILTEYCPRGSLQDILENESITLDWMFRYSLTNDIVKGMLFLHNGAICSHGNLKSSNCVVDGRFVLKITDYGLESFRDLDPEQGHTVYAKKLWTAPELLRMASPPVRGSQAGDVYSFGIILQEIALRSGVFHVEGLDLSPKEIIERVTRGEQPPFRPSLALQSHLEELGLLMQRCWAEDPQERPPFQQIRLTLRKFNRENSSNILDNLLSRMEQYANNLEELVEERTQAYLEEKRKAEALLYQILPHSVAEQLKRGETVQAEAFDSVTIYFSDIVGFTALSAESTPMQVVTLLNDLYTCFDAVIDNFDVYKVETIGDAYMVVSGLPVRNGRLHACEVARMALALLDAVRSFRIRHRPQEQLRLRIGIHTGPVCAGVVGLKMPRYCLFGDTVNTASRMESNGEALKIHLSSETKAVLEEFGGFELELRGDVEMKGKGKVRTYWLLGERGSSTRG

[5] = molecular target: T5, human NPR1 on CHO-K1 cells in the presence of ANP (human, UniProt P01160 124-151); experiment: flow cytometry, hNPR1 CHO-K1 cells, IgG
T5 construct: also called hNPR1 CHO K1 + 100 nM ANP
T5 sequence: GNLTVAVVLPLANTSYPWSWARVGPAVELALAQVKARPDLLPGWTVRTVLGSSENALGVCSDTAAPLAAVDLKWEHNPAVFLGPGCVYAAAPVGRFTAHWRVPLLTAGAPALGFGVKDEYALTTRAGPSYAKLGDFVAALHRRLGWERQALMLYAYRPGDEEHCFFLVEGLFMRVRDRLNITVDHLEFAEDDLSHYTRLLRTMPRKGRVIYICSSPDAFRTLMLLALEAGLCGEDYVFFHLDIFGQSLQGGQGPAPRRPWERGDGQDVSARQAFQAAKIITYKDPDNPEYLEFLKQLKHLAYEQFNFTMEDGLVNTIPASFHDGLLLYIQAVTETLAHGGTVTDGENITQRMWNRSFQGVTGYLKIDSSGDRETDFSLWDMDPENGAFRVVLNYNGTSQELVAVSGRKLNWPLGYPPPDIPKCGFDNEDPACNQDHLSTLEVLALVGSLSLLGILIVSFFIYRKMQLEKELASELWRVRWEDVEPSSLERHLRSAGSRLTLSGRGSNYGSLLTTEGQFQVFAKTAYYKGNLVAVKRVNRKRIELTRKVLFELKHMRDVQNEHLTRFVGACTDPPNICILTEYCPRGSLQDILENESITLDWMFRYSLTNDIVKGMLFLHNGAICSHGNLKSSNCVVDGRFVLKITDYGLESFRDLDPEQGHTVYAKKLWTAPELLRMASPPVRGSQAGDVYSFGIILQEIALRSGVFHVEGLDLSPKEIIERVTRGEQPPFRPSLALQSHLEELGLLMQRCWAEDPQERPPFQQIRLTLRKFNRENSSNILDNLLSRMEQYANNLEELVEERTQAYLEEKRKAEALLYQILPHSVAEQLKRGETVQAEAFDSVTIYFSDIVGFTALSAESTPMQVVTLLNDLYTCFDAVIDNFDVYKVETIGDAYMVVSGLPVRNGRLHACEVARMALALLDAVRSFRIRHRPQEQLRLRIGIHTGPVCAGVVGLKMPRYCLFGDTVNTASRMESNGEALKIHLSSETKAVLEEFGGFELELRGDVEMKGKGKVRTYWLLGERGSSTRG
T5 sequence (peptide): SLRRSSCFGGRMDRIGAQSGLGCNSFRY

[6] = molecular target: T4, human NPR1 on CHO-K1 cells; experiment: flow cytometry, hNPR1 CHO-K1 cells, IgG
[7] = molecular target: constitutively active human NPR1 mutant (W74R) (human) (UniProt P16066); experiment: ELISA, IgG titrated on coated antigen, fluorescence [Cont.]

Row | Binder | ELISA binding at 1 µM IgG [1] | ELISA binding at 1 µM IgG [2] | ELISA binding at 1 µM IgG [3] | cGMP conc [nM] at 1 µM IgG, +0.075 nM ANP [4] [nM] | cGMP conc [nM] at 1 µM IgG, without ANP [4] [nM] | flow cytometry S/BG at 1 µM IgG [5] [S/BG] | flow cytometry S/BG at 1 µM IgG [6] [S/BG] | EC50 (read off the curve) [7] [nM]
1 | YY07 (IgG format) (antibody, V domains shown, also called YY07_LALA) VH: EVQLVQSGAEVKKPGESLKISCKGSGYSFTSYWISWVRQMPGKGLEWMGIIYPGTSYTRYSPSFQGQVTISADKSISTAYLQWSSLKASDTAMYYCARGSLPGLLGFDHWGQGTLVTVSS VL: QSVLTQPPSVSGAPGQRVTISCTGSSSNIGAGYDVHWYQQLPGTAPKLLIYGNSNRPNGVPDRFSGSKSGTSASLAITGLQAEDEADYYCQSYDSPTSSSVFGGGTKLTVLG | 68 | 24 | 3 | 9 | 4 | 44 | 8 | 2
2 | YY06 (IgG format) (antibody, V domains shown, also called YY06_LALA) VH: EVQLLESGGGLVQPGGSLRLSCAASGFTFSSYAISWVRQAPGKGLEWVSAISGSGGSTYYAESVKGRFTISRDNSKNTLYLQMNSLRAEDTAVYYCARPYLGDRRSYGFDHWGQGTLVTVSS VL: QSALTQPASVSGSPGQSITISCTGTSSDVGSYNLVSWYQQHPGKAPKLMIYEGSKRPSGVSNRFSGSKSGNTASLTISGLQAEDEADYYCSSYGFHIVVVVFGGGTKLTVLG | 91 | 102 | 3 | 15 | 12 | 18 | 26 | 5
